Results: US20240209076A1 (KODIAK SCIENCES, published 2024)

Each binder was assayed against recombinant human IL-6 (human, UniProt P05231 30-212) (assay: SPR, IL-6 on CM5 chip, Fab lysate, 25 C).
Description: Three ranges of antigen density (100-150 RU, 300-400 RU, 400-600 RU) were obtained by using variable flow times for each chip channel, later blocked with ethanolamine. Supernatants of the 96-well filtered culture lysates were injected at 50 μL/min for 120 seconds. Fitting of dissociation curves (300 seconds) to single exponential decay curve was used for the determination of dissociation rates (koff). Chip surfaces were regenerated with 10 mM Glycine pH 1.7 solution injected at 50 μL/min during 60 seconds after every cycle of sample binding and dissociation.

recombinant human IL-6, sequence (P05231 30-212 limits assumed): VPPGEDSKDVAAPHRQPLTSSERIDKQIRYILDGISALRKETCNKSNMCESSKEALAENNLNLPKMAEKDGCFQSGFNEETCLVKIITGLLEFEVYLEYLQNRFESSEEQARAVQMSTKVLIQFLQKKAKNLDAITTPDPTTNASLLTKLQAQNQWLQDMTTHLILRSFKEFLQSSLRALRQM

Row | Binder | koff
1 | anti-IL-6 Fab, heavy chain V64A (Fab, V domains shown, see m39) VH: EVQLVESGGGLVQPGGSLRLSCAASGFTFSPFAMSWVRQAPGKGLEWVAKISPGGSWTYYSDTATGRFTFSLDTSKSTAYLQMNSLRAEDTAVYYCARQLWGYYALDIWGQGTLVTVSS VL: DIQLTQSPSSLSASVGDRVTITCSASISVSYMYWYQQKPGKAPKLLIYDMSNLASGVPSRFSGSGSGTDFTLTISSLQPEDFATYYCMQWSGYPYTFGQGTKVEIK | 0.00643 s⁻¹
2 | anti-IL-6 Fab, light chain I27F (Fab, V domains shown, see m39) VH: EVQLVESGGGLVQPGGSLRLSCAASGFTFSPFAMSWVRQAPGKGLEWVAKISPGGSWTYYSDTVTGRFTFSLDTSKSTAYLQMNSLRAEDTAVYYCARQLWGYYALDIWGQGTLVTVSS VL: DIQLTQSPSSLSASVGDRVTITCSASFSVSYMYWYQQKPGKAPKLLIYDMSNLASGVPSRFSGSGSGTDFTLTISSLQPEDFATYYCMQWSGYPYTFGQGTKVEIK | 0.00594 s⁻¹
3 | anti-IL-6 Fab, light chain A25T (Fab, V domains shown, see m39) VH: EVQLVESGGGLVQPGGSLRLSCAASGFTFSPFAMSWVRQAPGKGLEWVAKISPGGSWTYYSDTVTGRFTFSLDTSKSTAYLQMNSLRAEDTAVYYCARQLWGYYALDIWGQGTLVTVSS VL: DIQLTQSPSSLSASVGDRVTITCSTSISVSYMYWYQQKPGKAPKLLIYDMSNLASGVPSRFSGSGSGTDFTLTISSLQPEDFATYYCMQWSGYPYTFGQGTKVEIK | 0.00479 s⁻¹
4 | anti-IL-6 Fab, heavy chain W57F (Fab, V domains shown, see m39) VH: EVQLVESGGGLVQPGGSLRLSCAASGFTFSPFAMSWVRQAPGKGLEWVAKISPGGSFTYYSDTVTGRFTFSLDTSKSTAYLQMNSLRAEDTAVYYCARQLWGYYALDIWGQGTLVTVSS VL: DIQLTQSPSSLSASVGDRVTITCSASISVSYMYWYQQKPGKAPKLLIYDMSNLASGVPSRFSGSGSGTDFTLTISSLQPEDFATYYCMQWSGYPYTFGQGTKVEIK | 0.00615 s⁻¹
5 | anti-IL-6 Fab, light chain I27W (Fab, V domains shown, see m39) VH: EVQLVESGGGLVQPGGSLRLSCAASGFTFSPFAMSWVRQAPGKGLEWVAKISPGGSWTYYSDTVTGRFTFSLDTSKSTAYLQMNSLRAEDTAVYYCARQLWGYYALDIWGQGTLVTVSS VL: DIQLTQSPSSLSASVGDRVTITCSASWSVSYMYWYQQKPGKAPKLLIYDMSNLASGVPSRFSGSGSGTDFTLTISSLQPEDFATYYCMQWSGYPYTFGQGTKVEIK | 0.00569 s⁻¹
6 | anti-IL-6 Fab, light chain I27L (Fab, V domains shown, see m39) VH: EVQLVESGGGLVQPGGSLRLSCAASGFTFSPFAMSWVRQAPGKGLEWVAKISPGGSWTYYSDTVTGRFTFSLDTSKSTAYLQMNSLRAEDTAVYYCARQLWGYYALDIWGQGTLVTVSS VL: DIQLTQSPSSLSASVGDRVTITCSASLSVSYMYWYQQKPGKAPKLLIYDMSNLASGVPSRFSGSGSGTDFTLTISSLQPEDFATYYCMQWSGYPYTFGQGTKVEIK | 0.00593 s⁻¹
7 | anti-IL-6 Fab, light chain D49E (Fab, V domains shown, see m39) VH: EVQLVESGGGLVQPGGSLRLSCAASGFTFSPFAMSWVRQAPGKGLEWVAKISPGGSWTYYSDTVTGRFTFSLDTSKSTAYLQMNSLRAEDTAVYYCARQLWGYYALDIWGQGTLVTVSS VL: DIQLTQSPSSLSASVGDRVTITCSASISVSYMYWYQQKPGKAPKLLIYEMSNLASGVPSRFSGSGSGTDFTLTISSLQPEDFATYYCMQWSGYPYTFGQGTKVEIK | 0.00619 s⁻¹
8 | anti-IL-6 Fab, heavy chain V64F (Fab, V domains shown, see m39) VH: EVQLVESGGGLVQPGGSLRLSCAASGFTFSPFAMSWVRQAPGKGLEWVAKISPGGSWTYYSDTFTGRFTFSLDTSKSTAYLQMNSLRAEDTAVYYCARQLWGYYALDIWGQGTLVTVSS VL: DIQLTQSPSSLSASVGDRVTITCSASISVSYMYWYQQKPGKAPKLLIYDMSNLASGVPSRFSGSGSGTDFTLTISSLQPEDFATYYCMQWSGYPYTFGQGTKVEIK | 0.00684 s⁻¹
9 | anti-IL-6 Fab, light chain A54L (Fab, V domains shown, see m39) VH: EVQLVESGGGLVQPGGSLRLSCAASGFTFSPFAMSWVRQAPGKGLEWVAKISPGGSWTYYSDTVTGRFTFSLDTSKSTAYLQMNSLRAEDTAVYYCARQLWGYYALDIWGQGTLVTVSS VL: DIQLTQSPSSLSASVGDRVTITCSASISVSYMYWYQQKPGKAPKLLIYDMSNLLSGVPSRFSGSGSGTDFTLTISSLQPEDFATYYCMQWSGYPYTFGQGTKVEIK | 0.00489 s⁻¹
10 | anti-IL-6 Fab, light chain A54Y (Fab, V domains shown, see m39) VH: EVQLVESGGGLVQPGGSLRLSCAASGFTFSPFAMSWVRQAPGKGLEWVAKISPGGSWTYYSDTVTGRFTFSLDTSKSTAYLQMNSLRAEDTAVYYCARQLWGYYALDIWGQGTLVTVSS VL: DIQLTQSPSSLSASVGDRVTITCSASISVSYMYWYQQKPGKAPKLLIYDMSNLYSGVPSRFSGSGSGTDFTLTISSLQPEDFATYYCMQWSGYPYTFGQGTKVEIK | 0.00525 s⁻¹
11 | anti-IL-6 Fab, light chain A25S (Fab, V domains shown, see m39) VH: EVQLVESGGGLVQPGGSLRLSCAASGFTFSPFAMSWVRQAPGKGLEWVAKISPGGSWTYYSDTVTGRFTFSLDTSKSTAYLQMNSLRAEDTAVYYCARQLWGYYALDIWGQGTLVTVSS VL: DIQLTQSPSSLSASVGDRVTITCSSSISVSYMYWYQQKPGKAPKLLIYDMSNLASGVPSRFSGSGSGTDFTLTISSLQPEDFATYYCMQWSGYPYTFGQGTKVEIK | 0.0048 s⁻¹
12 | anti-IL-6 Fab, light chain A54G (Fab, V domains shown, see m39) VH: EVQLVESGGGLVQPGGSLRLSCAASGFTFSPFAMSWVRQAPGKGLEWVAKISPGGSWTYYSDTVTGRFTFSLDTSKSTAYLQMNSLRAEDTAVYYCARQLWGYYALDIWGQGTLVTVSS VL: DIQLTQSPSSLSASVGDRVTITCSASISVSYMYWYQQKPGKAPKLLIYDMSNLGSGVPSRFSGSGSGTDFTLTISSLQPEDFATYYCMQWSGYPYTFGQGTKVEIK | 0.00498 s⁻¹

Results, then the binder that gave them:

Row | koff | Binder
13 | 0.00493 s⁻¹ | anti-IL-6 Fab, light chain I47V (Fab, V domains shown, see m39) VH: EVQLVESGGGLVQPGGSLRLSCAASGFTFSPFAMSWVRQAPGKGLEWVAKISPGGSWTYYSDTVTGRFTFSLDTSKSTAYLQMNSLRAEDTAVYYCARQLWGYYALDIWGQGTLVTVSS VL: DIQLTQSPSSLSASVGDRVTITCSASISVSYMYWYQQKPGKAPKLLVYDMSNLASGVPSRFSGSGSGTDFTLTISSLQPEDFATYYCMQWSGYPYTFGQGTKVEIK
14 | 0.00458 s⁻¹ | anti-IL-6 Fab, light chain M50D (Fab, V domains shown, see m39) VH: EVQLVESGGGLVQPGGSLRLSCAASGFTFSPFAMSWVRQAPGKGLEWVAKISPGGSWTYYSDTVTGRFTFSLDTSKSTAYLQMNSLRAEDTAVYYCARQLWGYYALDIWGQGTLVTVSS VL: DIQLTQSPSSLSASVGDRVTITCSASISVSYMYWYQQKPGKAPKLLIYDDSNLASGVPSRFSGSGSGTDFTLTISSLQPEDFATYYCMQWSGYPYTFGQGTKVEIK
15 | 0.00503 s⁻¹ | anti-IL-6 Fab, light chain L46V (Fab, V domains shown, see m39) VH: EVQLVESGGGLVQPGGSLRLSCAASGFTFSPFAMSWVRQAPGKGLEWVAKISPGGSWTYYSDTVTGRFTFSLDTSKSTAYLQMNSLRAEDTAVYYCARQLWGYYALDIWGQGTLVTVSS VL: DIQLTQSPSSLSASVGDRVTITCSASISVSYMYWYQQKPGKAPKLVIYDMSNLASGVPSRFSGSGSGTDFTLTISSLQPEDFATYYCMQWSGYPYTFGQGTKVEIK
16 | 0.005 s⁻¹ | anti-IL-6 Fab, light chain L53R (Fab, V domains shown, see m39) VH: EVQLVESGGGLVQPGGSLRLSCAASGFTFSPFAMSWVRQAPGKGLEWVAKISPGGSWTYYSDTVTGRFTFSLDTSKSTAYLQMNSLRAEDTAVYYCARQLWGYYALDIWGQGTLVTVSS VL: DIQLTQSPSSLSASVGDRVTITCSASISVSYMYWYQQKPGKAPKLLIYDMSNRASGVPSRFSGSGSGTDFTLTISSLQPEDFATYYCMQWSGYPYTFGQGTKVEIK
17 | 0.00498 s⁻¹ | anti-IL-6 Fab, light chain L53H (Fab, V domains shown, see m39) VH: EVQLVESGGGLVQPGGSLRLSCAASGFTFSPFAMSWVRQAPGKGLEWVAKISPGGSWTYYSDTVTGRFTFSLDTSKSTAYLQMNSLRAEDTAVYYCARQLWGYYALDIWGQGTLVTVSS VL: DIQLTQSPSSLSASVGDRVTITCSASISVSYMYWYQQKPGKAPKLLIYDMSNHASGVPSRFSGSGSGTDFTLTISSLQPEDFATYYCMQWSGYPYTFGQGTKVEIK
18 | 0.00492 s⁻¹ | anti-IL-6 Fab, light chain M32L (Fab, V domains shown, see m39) VH: EVQLVESGGGLVQPGGSLRLSCAASGFTFSPFAMSWVRQAPGKGLEWVAKISPGGSWTYYSDTVTGRFTFSLDTSKSTAYLQMNSLRAEDTAVYYCARQLWGYYALDIWGQGTLVTVSS VL: DIQLTQSPSSLSASVGDRVTITCSASISVSYLYWYQQKPGKAPKLLIYDMSNLASGVPSRFSGSGSGTDFTLTISSLQPEDFATYYCMQWSGYPYTFGQGTKVEIK
19 | 0.00455 s⁻¹ | anti-IL-6 Fab, light chain M32V (Fab, V domains shown, see m39) VH: EVQLVESGGGLVQPGGSLRLSCAASGFTFSPFAMSWVRQAPGKGLEWVAKISPGGSWTYYSDTVTGRFTFSLDTSKSTAYLQMNSLRAEDTAVYYCARQLWGYYALDIWGQGTLVTVSS VL: DIQLTQSPSSLSASVGDRVTITCSASISVSYVYWYQQKPGKAPKLLIYDMSNLASGVPSRFSGSGSGTDFTLTISSLQPEDFATYYCMQWSGYPYTFGQGTKVEIK
20 | 0.00476 s⁻¹ | anti-IL-6 Fab, light chain M50E (Fab, V domains shown, see m39) VH: EVQLVESGGGLVQPGGSLRLSCAASGFTFSPFAMSWVRQAPGKGLEWVAKISPGGSWTYYSDTVTGRFTFSLDTSKSTAYLQMNSLRAEDTAVYYCARQLWGYYALDIWGQGTLVTVSS VL: DIQLTQSPSSLSASVGDRVTITCSASISVSYMYWYQQKPGKAPKLLIYDESNLASGVPSRFSGSGSGTDFTLTISSLQPEDFATYYCMQWSGYPYTFGQGTKVEIK
21 | 0.00501 s⁻¹ | anti-IL-6 Fab, light chain L53W (Fab, V domains shown, see m39) VH: EVQLVESGGGLVQPGGSLRLSCAASGFTFSPFAMSWVRQAPGKGLEWVAKISPGGSWTYYSDTVTGRFTFSLDTSKSTAYLQMNSLRAEDTAVYYCARQLWGYYALDIWGQGTLVTVSS VL: DIQLTQSPSSLSASVGDRVTITCSASISVSYMYWYQQKPGKAPKLLIYDMSNWASGVPSRFSGSGSGTDFTLTISSLQPEDFATYYCMQWSGYPYTFGQGTKVEIK
